# According to patent US20060226082A1, “Methods for substrate and modulator screening using enzyme-reactor chromatography/tandem mass spectrometry” (McMaster University, priority 2005, published 2006):
# Substrate: Nc1ncnc2c1ncn2[C@@H]1O[C@H](CO)[C@@H](O)[C@H]1O
# Assay: Absorbance-based assay of ADA in solution
# Type: biochemical, bovine
# Details: other: ADA in solution, absorbance assay (FIG. 7)
# Protocol: FIG. 7 is a graph showing the assessment of Km values for ADA in solution using an absorbance-based assay.
# The KI value was determined by extrapolation of IC50 values to the point of zero substrate concentration. The method is based on the derivation described by Cheng and Prusoff,^26 as shown below. Km values were obtained using immobilized enzyme reactor columns by plotting the concentration of product formed upon infusion of a given concentration of substrate and fitting the data to the Michaelis-Menten equation. The data was compared to that obtained using a conventional absorbance based assay (see below).^27
protein,measurement,value
"adenosine deaminase (ADA) in solution (Bos taurus) (protein, Adenosine deaminase (ADA, Type V, from bovine intestine, EC 3.5.4.4); purchased Sigma-Aldrich (Oakville, Ontario, Canada) Type V (catalogue number not given); host or cells: bovine intestine (tissue-derived)) MAQTPAFNKPKVELHVHLDGAIKPETILYYGRKRGIALPADTPEELQNIIGMDKPLSLPEFLAKFDYYMPAIAGCREAVKRIAYEFVEMKAKDGVVYVEVRYSPHLLANSKVEPIPWNQAEGDLTPDEVVSLVNQGLQEGERDFGVKVRSILCCMRHQPSWSSEVVELCKKYREQTVVAIDLAGDETIEGSSLFPGHVKAYAEAVKSGVHRTVHAGEVGSANVVKEAVDTLKTERLGHGYHTLEDATLYNRLRQENMHFEVCPWSSYLTGAWKPDTEHPVVRFKNDQVNYSLNTDDPLIFKSTLDTDYQMTKNEMGFTEEEFKRLNINAAKSSFLPEDEKKELLDLLYKAYGMPSPASAEQCL",Km,89 µM
